Source: paper PMC7872222 (Chembiochem : a European journal of chemical biology, 2020)
Ends that are not written are not given here.

Legend:
[1] = molecular target: T1, microtubule-associated protein 1A/1B light chain 3B protein (human, UniProt Q9GZQ8 1-120); assay: fluorescence polarisation
[2] = molecular target: T1, microtubule-associated protein 1A/1B …; assay: BLI
GABARAP = GABARAP (human, UniProt O95166 1-117); assay: BLI
Chain of GABARAP (O95166 whole entry): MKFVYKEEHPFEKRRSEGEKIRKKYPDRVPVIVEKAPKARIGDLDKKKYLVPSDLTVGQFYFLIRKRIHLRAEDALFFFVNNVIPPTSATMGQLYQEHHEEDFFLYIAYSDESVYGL

Fluorescein-DATYTWEHLAWP [fluorescein-labeled K1 peptide]
Kd [1]: 1200 nM

B1: FYCO1 peptide C1289S (peptide)
peptide: DDAVFDIITDEELSQIQEW
HELM: PEPTIDE1{[O=C1N[C@H]2[C@H](CS[C@H]2CCCCC(=O)[*:2])N1].[bAla].[bAla].D.D.A.V.F.D.I.I.T.D.E.E.L.S.Q.I.Q.E.W.[am]}$$$$V2.0
SMILES: CC[C@H](C)[C@H](NC(=O)[C@H](CCC(N)=O)NC(=O)[C@H](CO)NC(=O)[C@H](CC(C)C)NC(=O)[C@H](CCC(=O)O)NC(=O)[C@H](CCC(=O)O)NC(=O)[C@H](CC(=O)O)NC(=O)[C@@H](NC(=O)[C@@H](NC(=O)[C@@H](NC(=O)[C@H](CC(=O)O)NC(=O)[C@H](Cc1ccccc1)NC(=O)[C@@H](NC(=O)[C@H](C)NC(=O)[C@H](CC(=O)O)NC(=O)[C@H](CC(=O)O)NC(=O)CCNC(=O)CCNC(=O)CCCC[C@@H]1SC[C@@H]2NC(=O)N[C@@H]21)C(C)C)[C@@H](C)CC)[C@@H](C)CC)[C@@H](C)O)C(=O)N[C@@H](CCC(N)=O)C(=O)N[C@@H](CCC(=O)O)C(=O)N[C@@H](Cc1c[nH]c2ccccc12)C(N)=O
Kd [2]: 330 nM

B2: biotinylated K1 peptide (peptide)
peptide: DATYTWEHLAWP
HELM: PEPTIDE1{[O=C1N[C@H]2[C@H](CS[C@H]2CCCCC(=O)[*:2])N1].[bAla].[bAla].D.A.T.Y.T.W.E.H.L.A.W.P.[am]}$$$$V2.0
SMILES: CC(C)C[C@H](NC(=O)[C@H](Cc1c[nH]cn1)NC(=O)[C@H](CCC(=O)O)NC(=O)[C@H](Cc1c[nH]c2ccccc12)NC(=O)[C@@H](NC(=O)[C@H](Cc1ccc(O)cc1)NC(=O)[C@@H](NC(=O)[C@H](C)NC(=O)[C@H](CC(=O)O)NC(=O)CCNC(=O)CCNC(=O)CCCC[C@@H]1SC[C@@H]2NC(=O)N[C@@H]21)[C@@H](C)O)[C@@H](C)O)C(=O)N[C@@H](C)C(=O)N[C@@H](Cc1c[nH]c2ccccc12)C(=O)N1CCC[C@H]1C(N)=O
Kd (GABARAP): 390 nM
